This passage reports Mean relative activity results from patent US20220259593A1, “CONTROL OF MAMMALIAN GENE DOSAGE USING CRISPR” (The Regents of the University of California, priority 2019, published 2022).

B1: cr532 (nucleic acid)
guide: GTTTAAGAGCTAAGCTGGAAACAGCATAGCAAGTTTAAATAAGGCTAGTCCGTTATCAACGTGAAAACGTGACTCCGAGTCGGAGTT
modifications: listed as DNA, chemistry not fully specified
B2: cr870 (nucleic acid)
guide: B1 guide with T27A, G61T, C68A, A72G, T74A, A84T, T86C
modifications: listed as DNA, chemistry not fully specified
B3: cr379 (nucleic acid)
guide: B1 guide with A26C, G61T, C68A, A72G, T74A, A84T, T86C
modifications: listed as DNA, chemistry not fully specified
B4: cr487 (nucleic acid)
guide: B1 guide with A32C, G61T, C68A, A72G, T74A, A84T, T86C
modifications: listed as DNA, chemistry not fully specified
B5: cr982 (nucleic acid)
guide: B1 guide with T34C, G61T, C68A, A72G, T74A, C75A, G83T, A84T, T86C
modifications: listed as DNA, chemistry not fully specified
B6: cr965 (nucleic acid)
guide: B1 guide with C45G, G48C, G61T, C68A, A72G, T74C, C75T, G83A, A84G, T86C
modifications: listed as DNA, chemistry not fully specified
B7: cr217 (nucleic acid)
guide: B1 guide with G33T, G61T, A65C, C68A, A72G, T74A, A84T, T86C
modifications: listed as DNA, chemistry not fully specified
B8: cr025 (nucleic acid)
guide: B1 guide with G1C, G7A, G61T, C68A, A72G, T74A, A84T, T86C
modifications: listed as DNA, chemistry not fully specified
B9: cr662 (nucleic acid)
guide: B1 guide with T35A, G61T, C68A, A72G, T74A, A84T, T86C
modifications: listed as DNA, chemistry not fully specified
B10: cr344 (nucleic acid)
guide: B1 guide with G52A, G61T, A66T, C68A, A72G, T74A, A84T, T86C
modifications: listed as DNA, chemistry not fully specified
B11: cr374 (nucleic acid)
guide: B1 guide with C45A, G61T, C68A, A72G, T74A, A84T, T86C
modifications: listed as DNA, chemistry not fully specified
B12: cr308 (nucleic acid)
guide: B1 guide with G43A, C51T, A59T, G61T, C68A, T70A, A72G, T86C
modifications: listed as DNA, chemistry not fully specified
B13: cr046 (nucleic acid)
guide: B1 guide with T2G, G7C, G61T, C68A, A72G, T74A, A84T, T86C
modifications: listed as DNA, chemistry not fully specified
B14: cr853 (nucleic acid)
guide: B1 guide with G33T, T46G, G61T, C68A, A72G, T74A, A84T, T86C
modifications: listed as DNA, chemistry not fully specified
B15: cr262 (nucleic acid)
guide: B1 guide with T34C, A59T, G61T, C68A, T70A, A72G, T74A, A84T, T86C
modifications: listed as DNA, chemistry not fully specified
B16: cr331 (nucleic acid)
guide: B1 guide with T34C, G61T, C68A, A72G, T74A, C75T, G83A, A84T, T86C
modifications: listed as DNA, chemistry not fully specified
B17: cr158 (nucleic acid)
guide: GTTTAAGAGCTAAGCTGGAAACAGCATAGCAAGTTTAAATAAAGTTAATCTGTTATCAACTCGAAAGAGTGGCACCGAGTCGGTGCT
modifications: listed as DNA, chemistry not fully specified
B18: cr992 (nucleic acid)
guide: B17 guide with A28T, A43G, T45C, A48G, T51C, G52A, C62T, G67A
modifications: listed as DNA, chemistry not fully specified
B19: cr077 (nucleic acid)
guide: B17 guide with T2A, A8T, A43G, T45C, A48G, T51C, C62T, G67A
modifications: listed as DNA, chemistry not fully specified
B20: cr972 (nucleic acid)
guide: B17 guide with A43G, G44T, T45G, A48C, C50A, T51C, T61C, C62T, G67A, A68G
modifications: listed as DNA, chemistry not fully specified
B21: cr696 (nucleic acid)
guide: B17 guide with A31G, A43G, T45C, A47C, A48G, T51C, A58C, C62T, G67A
modifications: listed as DNA, chemistry not fully specified
B22: cr480 (nucleic acid)
guide: B1 guide with C60A, G61T, C68A, G69T, T74A, G77T, C81A, A84T
modifications: listed as DNA, chemistry not fully specified
B23: cr220 (nucleic acid)
guide: B17 guide with A41C, A43G, T45C, A48G, T51C, G52A, T54A, C62T, G67A
modifications: listed as DNA, chemistry not fully specified
B24: cr194 (nucleic acid)
guide: B17 guide with A43G, T45C, A48G, C50A, T51C, C62T, G67A
modifications: listed as DNA, chemistry not fully specified
B25: cr110 (nucleic acid)
guide: B17 guide with A43G, T45A, A48T, T51C, C62T, G67A, C75T, C76T, G82A, G83A
modifications: listed as DNA, chemistry not fully specified
B26: cr403 (nucleic acid)
guide: B17 guide with T34C, A43G, T45C, A48G, T51C, C62T, G67A, C76A, G82T
modifications: listed as DNA, chemistry not fully specified
B27: cr907 (nucleic acid)
guide: B17 guide with A43G, T45C, A48G, T51C, G52A, C62T, A64T, G67A, G79T
modifications: listed as DNA, chemistry not fully specified
B28: cr654 (nucleic acid)
guide: B17 guide with T34A, A43G, T45C, A48G, T51C, C62T, A65T, G67A
modifications: listed as DNA, chemistry not fully specified
B29: cr720 (nucleic acid)
guide: B17 guide with T34C, A43G, T51C, C62T, G67A
modifications: listed as DNA, chemistry not fully specified
B30: cr076 (nucleic acid)
guide: B17 guide with G1A, T2A, A43G, T45C, A48G, T51C, C62T, G67A
modifications: listed as DNA, chemistry not fully specified
B31: cr417 (nucleic acid)
guide: B17 guide with G33T, A43G, T45C, A48G, T51C, C62T, A66G, G67A
modifications: listed as DNA, chemistry not fully specified
B32: cr276 (nucleic acid)
guide: B17 guide with A43G, T45A, A48T, T51C, A59G, C62T, G67A, T70C, G77C, C81G
modifications: listed as DNA, chemistry not fully specified
B33: cr207 (nucleic acid)
guide: B17 guide with A43G, T45C, A48G, T51C, C62T, G67A, C81G
modifications: listed as DNA, chemistry not fully specified
B34: cr792 (nucleic acid)
guide: B1 guide with T34C, G61T, C68A, A72C, T74A, A84T, T86G
modifications: listed as DNA, chemistry not fully specified
B35: cr154 (nucleic acid)
guide: B17 guide with A28C, A43G, T45C, A48G, T51C, G52A, C62T, G67A
modifications: listed as DNA, chemistry not fully specified
B36: cr198 (nucleic acid)
guide: B17 guide with G33T, A43G, T45C, A48G, T51C, C62T, G67A, G79A
modifications: listed as DNA, chemistry not fully specified
B37: cr277 (nucleic acid)
guide: B17 guide with T45C, A48G, C62A, G67T, C76A, G82T
modifications: listed as DNA, chemistry not fully specified
B38: cr246 (nucleic acid)
guide: B17 guide with T40A, A43G, T45C, A47G, A48G, T51C, C62T, G67A
modifications: listed as DNA, chemistry not fully specified
B39: cr073 (nucleic acid)
guide: B17 guide with A5T, A8C, A43G, T45C, A48G, T51C, C62T, G67A
modifications: listed as DNA, chemistry not fully specified

Changes are numbered by the printed parent chain.

One data set deals with K562 CRISPRi cells. The data set is described as follows: Constant region variant library pooled growth screen, K562. The conditions noted are these: sgRNA constant region variants; activity relative to the original, un-modified constant region cr995. The class given is cell-based, human. Put shortly: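 K562 CRISPRi, duplicate transductions; puromycin 1 d 0.75 μg/mL then 1 d 0.85 μg/mL; >2000× coverage in spinner flasks; harvests at 4-8 d growth. Activity = phenotype ÷ phenotype with unmodified constant region.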
As to B1, the Mean relative activity was found to be 1.093.

On to B2, for which the Mean relative activity is reported as 1.04.

B3 returned a Mean relative activity of 1.041.

B4 had a Mean relative activity of 1.039.

The data set is the same for the next values; noted with them: sgRNA constant region variants; activity relative to the unmodified constant region cr995.
As to B5, the Mean relative activity is 0.2842.

As for B6, the Mean relative activity is given as 0.2572.

B7 registered a Mean relative activity of 0.2802.

B8 yielded a Mean relative activity of 0.2396.

The molecule B9 returned a Mean relative activity of 0.2491.

In the case of B10, the Mean relative activity is recorded as 0.2836.

B11 displayed a Mean relative activity of 0.2686.

Regarding B12, the Mean relative activity is given as 0.2249.

With B13, the Mean relative activity was 0.2592.

In turn, B14 showed a Mean relative activity of 0.2121.

B15: the Mean relative activity is reported as 0.2329.

Regarding B16, the Mean relative activity is 0.2828.

B17 showed a Mean relative activity of 0.2403.

In turn, B18 had a Mean relative activity of 0.2785.

With B19, the Mean relative activity was found to be 0.2538.

The molecule B20 registered a Mean relative activity of 0.2767.

The molecule B21 yielded a Mean relative activity of 0.2553.

Take B22: the Mean relative activity is on record as 0.2543.

The molecule B23 yielded a Mean relative activity of 0.2229.

On to B24, for which the Mean relative activity is 0.2113.

For the molecule B25, the Mean relative activity is 0.2547.

B26 yielded a Mean relative activity of 0.2381.

In turn, B27 registered a Mean relative activity of 0.2821.

B28 gave a Mean relative activity of 0.2692.

B29 displayed a Mean relative activity of 0.2481.

Regarding B30, the Mean relative activity turned out to be 0.2741.

With B31, the Mean relative activity amounted to 0.2821.

In turn, B32 returned a Mean relative activity of 0.2143.

B33 registered a Mean relative activity of 0.2154.

As for B34, the Mean relative activity came to 0.242.

Consider B35, for which the Mean relative activity turned out to be 0.2827.

As to B36, the Mean relative activity stood at 0.236.

In the case of B37, the Mean relative activity is recorded as 0.2732.

Take B38: the Mean relative activity is on record as 0.2779.

B39 registered a Mean relative activity of 0.265.
